Columns and labels:
[1] = biological target: biotinylated Aβ oligomer bound to Neutravidin (Aβ42 oligomer SPR sensor) (UniProt P05067); test: SPR, biotin-tagged Aβ on Neutravidin sensor (Oligomer sensor)
[2] = biological target: C-terminal monomer (Aβ monomer coupled at the carboxyl terminus) (UniProt P05067); test: SPR, biotin-tagged Aβ on Neutravidin sensor (C-terminal monomer sensor)
[3] = biological target: N-terminal monomer (Aβ monomer coupled at the amino terminus) (UniProt P05067); test: SPR, biotin-tagged Aβ on Neutravidin sensor (N-terminal monomer sensor)
Aβ fibril (Aβ42 fibril) [4] = biological target: Aβ fibril (Aβ42 fibril) (UniProt P05067); test: ELISA, Aβ fibril plate, fitted maximum
[5] = biological target: globular Aβ oligomer (Aβ42 oligomers) on ELISA plates (UniProt P05067); test: ELISA, best fit of curves, blank plate against Aβ oligomer plate
[6] = biological target: globular Aβ oligomer (Aβ42 oligomers) on ELISA plates (UniProt P05067); test: ELISA on globular Aβ oligomer plates with chaotropic salt elution (avidity); this end, printed '>4M', is untreated IVIG (50% not reached at 4M, the highest concentration used)
[7] = biological target: globular Aβ oligomer (Aβ42 oligomers) on ELISA plates (UniProt P05067); test: ELISA, Aβ oligomer plate, typical half maximum titer
Aβ fibril (Aβ42 fibril) [8] = biological target: Aβ fibril (Aβ42 fibril) (UniProt P05067); test: ELISA half-max titer, Aβ fibril plate against blank plate
Aβ fibril (Aβ42 fibril) [9] = biological target: Aβ fibril (Aβ42 fibril) (UniProt P05067); test: ELISA, Aβ fibril plate, typical half maximum titer
[10] = biological target: Aβ monomer peptide (Aβ42 Peptide Monomer) on ELISA plates (UniProt P05067); test: ELISA half-max titer, Aβ monomer plate against blank plate
[11] = biological target: Aβ monomer peptide (Aβ42 Peptide Monomer) on ELISA plates (UniProt P05067); test: ELISA, best fit of curves, blank plate against Aβ monomer plate
[12] = biological target: globular Aβ oligomer (Aβ42 oligomers) on ELISA plates (UniProt P05067); test: ELISA half-max titer, Aβ oligomer plate against blank plate
[13] = biological target: Aβ monomer peptide (Aβ42 Peptide Monomer) on ELISA plates (UniProt P05067); test: ELISA, Aβ monomer plate, fitted maximum
Aβ fibril (Aβ42 fibril) [14] = biological target: Aβ fibril (Aβ42 fibril) (UniProt P05067); test: ELISA, best fit of curves, blank plate against Aβ fibril plate
[15] = biological target: Aβ monomer peptide (Aβ42 Peptide Monomer) on ELISA plates (UniProt P05067); test: competition ELISA on Aβ monomer plates, IVIG in 3-fold dilutions from 1 mg/ml, competitor thyroglobulin 40 µg/ml
[16] = biological target: Aβ monomer peptide (Aβ42 Peptide Monomer) on ELISA plates (UniProt P05067); test: ELISA, Aβ monomer plate, typical half maximum titer
[17] = biological target: globular Aβ oligomer (Aβ42 oligomers) on ELISA plates (UniProt P05067); test: ELISA, Aβ oligomer plate, fitted maximum

Chain of Aβ monomer peptide (Aβ42 Peptide Monomer) on ELISA plates (P05067 672-713 limits assumed): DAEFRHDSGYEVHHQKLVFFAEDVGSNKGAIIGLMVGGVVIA
Chain of globular Aβ oligomer (Aβ42 oligomers) on ELISA plates (P05067 672-713 limits assumed): as above
Chain of Aβ fibril (Aβ42 fibril) (P05067 672-713 limits assumed): as above
Chain of biotinylated Aβ oligomer bound to Neutravidin (Aβ42 oligomer SPR sensor) (P05067 672-713 limits assumed): as above
Chain of N-terminal monomer (Aβ monomer coupled at the amino terminus) (P05067 672-713): as the sequence (P05067 672-713 limits assumed) above
Chain of C-terminal monomer (Aβ monomer coupled at the carboxyl terminus) (P05067 672-713): as the sequence (P05067 672-713 limits assumed) above

Row | Kd [1] [µM] | Kd [2] [µM] | Kd [3] [µM] | maximum binding value (A450 nm units) (Aβ fibril (Aβ42 fibril) [4]) | fold by which maximum binding on blank plates exceeds that on the amyloid plate [5] [fold] | ammonium thiocyanate concentration for 50% maximal binding [6] [M] | half maximum titer [7] | fold by which the blank plate half maximum binding titer is lower than the titer on this plate (Aβ fibril (Aβ42 fibril) [8]) [fold] | half maximum titer (Aβ fibril (Aβ42 fibril) [9]) | fold by which the blank plate half maximum binding titer is lower than the titer on this plate [10] [fold] | fold by which maximum binding on blank plates exceeds that on the amyloid plate [11] [fold] | fold by which the blank plate half maximum binding titer is lower than the titer on this plate [12] [fold] | maximum binding value (A450 nm units) [13] | fold by which maximum binding on blank plates exceeds that on the amyloid plate (Aβ fibril (Aβ42 fibril) [14]) [fold] | percent of control binding in presence of competitor [15] [%] | half maximum titer [16] | maximum binding value (A450 nm units) [17] | Substance
1 | 0.069 | 0.047 | 0.158 | – | – | – | – | – | – | – | – | – | – | – | – | – | – | 6E10 monoclonal anti-Aβ antibody
2 | – | – | – | 2.82 | 1.6 | 4 | 9.42 | 6.5 | 15.8 | 17.6 | 1.6 | 3.9 | 2.7 | 1.6 | 50 | 42.8 | 2.88 | intravenous immunoglobulin (IVIG; Gammagard Liquid, Baxter) (antibody)
